Experimental findings from paper PMC4522616 (Emerging Microbes & Infections, 2015) are described below.

As a reminder, the Kd is the free concentration of one partner at which half of the binding sites on the other are occupied at equilibrium, for simple one-to-one binding. High values mean a looser complex, low ones a tighter complex. Broadly, the koff is the first-order rate constant of dissociation. A high value points to a short-lived complex. Broadly, the kon is the second-order rate constant of association.

The target in test [1] is gp120 of HIV-1 BaL (clade B) (HIV-1 group M subtype B, isolate BaL …, UniProt Q2MKA8, strain). Briefly: ELISA.
Test [2] addresses gp120 of HIV-1 96ZM651 (clade C) (HIV-1 group M subtype C, isolate 96ZM651, strain). Briefly: ELISA. (In general: ELISA stands for enzyme-linked immunosorbent assay.)
The target of test [3] is gp120 of HIV-1 93MW965 (clade C) (HIV-1 group M subtype C, isolate …, strain). Briefly: BLI. (In general: In BLI a coated tip is dipped into the sample, and binding shifts an interference pattern.)
For test [4], the target named is gp120 of HIV-1 JR-FL (clade B) (HIV-1). Put plainly: BLI.
For test [5], the target named is T1, C4 peptide VGKAMYAPPIRGQIR (gp120 residues 430 to 444, HXB2 numbering) (HIV-1).
T1 chain: VGKAMYAPPIRGQIR
Briefly: crystal structure.

Test [6] has as its target JR-FL Env on pseudovirions (HIV-1 JR-FL (clade B), UniProt Q75760, strain). Briefly: virus capture assay.

B1: rabbit monoclonal antibody R53 (antibody, V domains shown)
VH: QSLEESGGGPVKPGGTLTLTCKASGIDFSSFYYMCWVRQAPGKGLEWIACIVTDITGESYYATWAKGRFAISKTSSTTVTLQMTSLTAADTATYFCARGDTYGYGDTVYALNLWGPGTLVTVSS
VL: GPVLTQTPPSASEPVGGTVTIKCQASQAIDEYLGWYQQKPGQRPKLLMYYASTLASGVPSRFKGSGSGTQFTLTISDLECADAATYYCQNYYVGSSTNYAFTFGGGTEVVVK
For B1, in test [1], the binding result was “binds”. Besides, in test [2], the binding result is “binds”. In test [3], this molecule came in with a Kd of 3.98 nM, a koff of 0.00121 s⁻¹ and a kon of 304000 M⁻¹ s⁻¹. In addition, in test [4], the Kd was found to be 1.96 nM, the koff came out at 0.000309 s⁻¹ and the kon worked out at 157000 M⁻¹ s⁻¹.

B2: R53 antigen-binding fragment (Fab) (Fab, V domains shown)
VH: B1 VH
VL: B1 VL
On to B2, for which the binding result in test [5] was “binds”.

B3: rabbit monoclonal antibody R56 (antibody, V domains shown)
VH: QSLEESGGDLVQPGASLTLTCKASGFSFGNNYDMCWVRQAPGKGLEWIGCIETGSSDSAAYATWAKGRFTISKTSSTTVTLQMTSLTAADTATYFCARNFDLWGPGTLVIVSS
VL: QVLTQTPSSVSTAVGSAVTINCQSSQNVYSNNNLAWFQQKPGQPPRLLIYDASKLASGVPSRFKGSGSGTQFTFTISDVQCDDAATFYCLGGYDCSSGDCAAFGGGTEVVVR
With B3, in test [6], the binding result is reported as “binds”.
